Data set [1] deals with 4-O-((2-OH)Ac-Abu-SSChgQ-S-P)-dAc-VIN.
In data set [2] the test system is 4-O-(Ac-4-trans-L-HypSSChgQSV-glycolyl)-VIN.
The subject of data set [3] is (4-O)-Ac-(4-trans-L-Hyp)SSChgQ-SL-(dAc)-VIN.
Data set [4] has as its system 4-O-(Ac-SSChgQS-Gly)-(dAc)-VIN.
The subject of data set [5] is 4-O-(Ac-4-trans-L-HypSSChgQ-SS-4-trans-L-Hyp)-dAc-VIN.
For data set [6], the system named is 4-O-(Ac-4-trans-L-HypSSChgQSL-lactyl)-(dAc)-VIN.
In data set [7] the test system is 4-O-(Ac-4-trans-L-HypSSChgQS-Glycine)-(dAc)-VIN.
The test system of data set [8] is Ac-AbuSSChgQ-SS-(4-O-P)-dAc-VIN.
The test system of data set [9] is 4-O-(Ac-SSChgQ-SS-4-trans-L-Hyp)-dAc-VIN.
For data set [10], the system named is Ac-4-trans-L-HypSSChgQSChg-(4-O-glycolyl)-VIN.
Data set [11] relates to Ac-4-trans-L-HypSSChgQS-(4-O-Ala)-(dAc)-VIN.
For data set [12], the system named is Ac-AbuSSChgQ-S(dS)-(4-O-P)-dAc-VIN.
Data set [13] relates to des-Acetylvinblastine-4-O-(N-Acetyl-4-trans-L-Hyp-Ser-Ser-Chg-Gln-Ser-Ser-Pro) ester.
In data set [14] the test system is 4-O-(Ac-4-trans-L-HypSSChgQSS-Sar)-(dAc)-VIN.
For data set [15], the system named is 4-O-(Ac-Abu-SSChgQ-SP)-dAc-VIN.
Data set [16] has as its system 4-O-(Ac-SSChgQ-SS-P)-dAc-VIN.
The subject of data set [17] is Ac-4-trans-L-HypSSChgQ-SChg-(4-O-lactyl)-dAc-VIN.
The test system of data set [18] is Ac-4-trans-L-HypSSChgQSS-(4-O-Sar)-(dAc)-VIN.

For the substance free prostate specific antigen (PSA), the Time to 50% Substrate Cleavage by York PSA in data set [1] was 110 min; in data set [2], 8 min; in data set [3], 35 min; in data set [4], 55 min; in data set [5] it was 13 min; in data set [6], 10 min. Moreover, the Time to 50% Substrate Cleavage by York PSA amounted to 30 min in data set [7]; 7 min in data set [8]; 22 min in data set [9]; 12 min in data set [10]; 60 min in data set [12]; 17 min in [13]. Also, the Time to 50% Substrate Cleavage by York PSA in data set [14] was 32 min; in data set [15], 80 min; in data set [16] it was 15 min; in data set [17], 14 min; in [18] it was 15 min. For the same substance, the “Time to 50% Substrate Cleavage by York PSA (Min)” value in [11] is 23 (prod converts to 4-O-A-dAc-VIN).

The record behind these values is US20040081659.
